Reference: the supplement of paper PMC9233669
This sample holds only a part of the variants without activity.

How the values were obtained:
biotinyl-Phe-oxazolone = experiment: self-aminoacylation, catalytic enhancement (BFO) (fold over background); higher = more active; k-Seq, kA / k0A0; sequences stand for … in GGGAAUGGAUCCACAUCUACGAAUUC…UUCACUGCAGACUUGACGAAGCUG
Method in brief: (§1)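 Mutagenized RNA pools (0.43 μM; 21-nt variable region) were treated with 2–1250 μM of each biotinyl-aminoacyl-oxazolone. Conditions were 50 μL HEPES/NaCl/KCl/MgCl2/CaCl2 buffer, 5% acetonitrile, pH 6.9–7.0, room temperature, 90 minutes. Catalytic enhancement, the median kA relative to the uncatalyzed rate, was derived from streptavidin capture, qPCR and Illumina sequencing.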

biotinyl-Ile-oxazolone = experiment: self-aminoacylation, catalytic enhancement (BIO) (fold over background); higher = more active; k-Seq, kA / k0A0; sequences stand for … in GGGAAUGGAUCCACAUCUACGAAUUC…UUCACUGCAGACUUGACGAAGCUG
Method in brief: as §1

biotinyl-Val-oxazolone = experiment: self-aminoacylation, catalytic enhancement (BVO) (fold over background); higher = more active; k-Seq, kA / k0A0; sequences stand for … in GGGAAUGGAUCCACAUCUACGAAUUC…UUCACUGCAGACUUGACGAAGCUG
Method in brief: as §1

biotinyl-Leu-oxazolone = experiment: self-aminoacylation, catalytic enhancement (BLO) (fold over background); higher = more active; k-Seq, kA / k0A0; sequences stand for … in GGGAAUGGAUCCACAUCUACGAAUUC…UUCACUGCAGACUUGACGAAGCUG
Method in brief: as §1

biotinyl-Trp-oxazolone = experiment: self-aminoacylation, catalytic enhancement (BWO) (fold over background); higher = more active; k-Seq, kA / k0A0; sequences stand for … in GGGAAUGGAUCCACAUCUACGAAUUC…UUCACUGCAGACUUGACGAAGCUG
Method in brief: as §1

biotinyl-Met-oxazolone = experiment: self-aminoacylation, catalytic enhancement (BMO) (fold over background); higher = more active; k-Seq, kA / k0A0; sequences stand for … in GGGAAUGGAUCCACAUCUACGAAUUC…UUCACUGCAGACUUGACGAAGCUG
Method in brief: as §1

Row | Sequence | self-aminoacylation (biotinyl-Phe-oxazolone) | self-aminoacylation (biotinyl-Ile-oxazolone) | self-aminoacylation (biotinyl-Val-oxazolone) | self-aminoacylation (biotinyl-Leu-oxazolone) | self-aminoacylation (biotinyl-Trp-oxazolone) | self-aminoacylation (biotinyl-Met-oxazolone)
1 | AAGUUAGCUAAUAGUCGCAAG [Fam3.1 aminoacylation ribozyme variant] | 5.25 | 1.78 | 1.49 | 1.52 | 2.21 | 1.6
2 | AAGUUAGCUAAUAGUCGCAGG [Fam3.1 aminoacylation ribozyme variant] | 4.27 | 1.76 | 1.8 | 1.62 | 1.77 | 1.6
3 | AAGUUAGCUAAUAGUCGCCAG [Fam3.1 aminoacylation ribozyme variant] | 1.48 | 1.91 | 1.33 | 1.67 | 3.82 | 2.09
4 | AAGUUAGCUAAUAGUCUCAAG [Fam3.1 aminoacylation ribozyme variant] | 2.11 | 1.26 | 1.27 | 0.902 | 1.69 | 1.22
5 | AAGUUCACUAAUAGUCGCAAG [Fam3.1 aminoacylation ribozyme variant] | 2.72 | 1.96 | 1.86 | 1.8 | 2.23 | 1.37
6 | AAGUUCGAUAAUAGUCGCAAG [Fam3.1 aminoacylation ribozyme variant] | 2.51 | 1.44 | 1.28 | 1.55 | 1.33 | 1.39
7 | AAGUUCGCAAAUAGUCGCAAG [Fam3.1 aminoacylation ribozyme variant] | 3.4 | 1.84 | 1.44 | 2.86 | 1.42 | 2.13
8 | AAGUUCGCUAACAGUCGCAAG [Fam3.1 aminoacylation ribozyme variant] | 2.24 | 1.45 | 1.33 | 1.81 | 1.06 | 1.36
9 | AAGUUCGCUAAUAAUCGCAAG [Fam3.1 aminoacylation ribozyme variant] | 1.54 | 1.24 | 1.31 | 1.02 | 0.758 | 1.24
10 | AAGUUCGCUAAUAGUGGCAAG [Fam3.1 aminoacylation ribozyme variant] | 0.484 | 0.737 | 0.56 | 0.8 | 0.444 | 0.601
11 | AAGUUCGCUAAUAUUCGCAAG [Fam3.1 aminoacylation ribozyme variant] | 2.16 | 1.71 | 1.65 | 1.84 | 1.25 | 1.36
12 | AAGUUCGCUAAUGGUCGCAAG [Fam3.1 aminoacylation ribozyme variant] | 4.06 | 1.55 | 1.5 | 1.8 | 1.62 | 1.33
13 | AAGUUCGCUCAUAGUCGCAAG [Fam3.1 aminoacylation ribozyme variant] | 7.56 | 2.23 | 1.77 | 1.96 | 2.26 | 2.01
14 | AAGUUGGAUAAUAGUCGCAAG [Fam3.1 aminoacylation ribozyme variant] | 1.31 | 1.17 | 1.01 | 0.984 | 1.12 | 1.11
15 | AAGUUGGCAAAUAGUCGCAAG [Fam3.1 aminoacylation ribozyme variant] | 2.07 | 1.57 | 1.41 | 1.32 | 2.03 | 1.04
16 | AAGUUGGCGAAUAGUCGCAAG [Fam3.1 aminoacylation ribozyme variant] | 2.86 | 1.78 | 1.78 | 1.51 | 2.72 | 1.64
17 | AAGUUGGCUAAUGGUCGCAAG [Fam3.1 aminoacylation ribozyme variant] | 1.01 | 1.29 | 1.4 | 1.1 | 1.23 | 1.28
18 | AAGUUUACUAAUAGUCACAAG [Fam3.1 aminoacylation ribozyme variant] | 2.55 | 1.74 | 1.44 | 1.33 | 1.39 | 1.33
19 | AAGUUUACUAAUAGUCGCAAA [Fam3.1 aminoacylation ribozyme variant] | 2.01 | 1.95 | 1.61 | 1.35 | 2.06 | 1.44
20 | AAGUUUAUUAAUAGUCGCAAG [Fam3.1 aminoacylation ribozyme variant] | 2.49 | 1.74 | 1.82 | 1.53 | 1.94 | 1.95
21 | AAGUUUCCGAAUAGUCGCAAG [Fam3.1 aminoacylation ribozyme variant] | 2.81 | 2.01 | 1.79 | 1.7 | 1.87 | 1.73
22 | AAGUUUCCUAACAGUCGCAAG [Fam3.1 aminoacylation ribozyme variant] | 1.26 | 1.23 | 1.03 | 0.963 | 0.58 | 0.884
23 | AAGUUUCCUAAUAGUCGCAAA [Fam3.1 aminoacylation ribozyme variant] | 3.59 | 1.99 | 1.43 | 1.99 | 1.96 | 1.74
24 | AAGUUUCCUAAUAGUCGCAAG [Fam3.1 aminoacylation ribozyme variant] | 2.47 | 1.57 | 1.36 | 1.42 | 1.62 | 1.34
25 | AAGUUUCCUAAUCGUCGCAAG [Fam3.1 aminoacylation ribozyme variant] | 1 | 0.879 | 0.893 | 0.896 | 0.618 | 0.973
26 | AAGUUUCCUAAUUGUCGCAAG [Fam3.1 aminoacylation ribozyme variant] | 0.96 | 1.47 | 1.38 | 1.88 | 0.994 | 1.14
